Results published in patent US20240261333A1 (published 2024).

Key:
LIMA1 = target: T1, LIMA1 (UniProt Q9UHB6-4 1-760, limits assumed); test: co-IP, anti-FLAG, N-FLAG B3GNT2 cell lysate, mass spectrometry
T1 construct: also called NP_001107018.1 (+1)
Experimental: (§1) Cells were plated in 10-cm cell culture dishes and grown to 60-80% confluency. For each condition, two biological replicates were harvested for co-IP. Cells were washed with PBS and 4 mL of lysis buffer (20 mM HEPES, 1% Triton X-100, 150 mM NaCl, 1 mM EDTA, and 10% glycerol) containing protease inhibitor cocktail was added. Cells were scraped and lysate was incubated at 4° C. under rotary agitation for 1 h. Lysate was centrifuged at 14,000×g for 10 min at 4° C. Supernatant was transferred to a new tube and an aliquot was taken as the input. […] For Western blots, 10 μg/mL Chicken Anti-FLAG (Aves labs ET-DY100) and IgY control (R&D Systems AB-101-C) antibodies were biotinylated (Thermo Fisher Scientific 90407) and added to the respective conditions. Lysates with antibodies were incubated at 4° C. under rotary agitation overnight. For each mL of lysate, 50 μL of Pierce Protein A/G Magnetic Beads (Mass spectrometry; Thermo Fisher Scientific 88803) or Pierce Streptavidin Magnetic Beads (Western blot; Thermo Fisher Scientific 88817) was washed twice with lysis buffer. Lysates with antibodies were added to the beads and incubated at 4° C. under rotary agitation for 4 h. Beads were washed with lysis buffer 3 times and resuspended in lysis buffer for storage.
(§2) Magnetic beads were resuspended in 100 mM Tris pH 7.8, reduced, alkylated and digested with trypsin at 37° ° C. overnight. This solution was subjected to solid phase extraction to concentrate the peptides and remove unwanted reagents followed by injection onto a Shimadzu HPLC with fraction collector. Eight fractions were collected and after concentration were injected on a Waters NanoAcquity HPLC equipped with a self-packed Aeris 3 μm C18 analytical column 0.075 mm by 20 cm, (Phenomenex). Peptides were eluted using standard reverse-phase gradients. The effluent from the column was analyzed using a Thermo Orbitrap Elite mass spectrometer (nanospray configuration) operated in a data dependent manner for 54 minutes. The resulting fragmentation spectra were correlated against the known database using Proteome Discover 1.4 (Thermo Fisher Scientific).

RPS19 = RPS19 (UniProt P39019 2-145); test: as above
Experimental: as §1, §2

RPS18 = RPS18 (UniProt P62269 2-152); test: as above
Experimental: as §1, §2

SRSF1 = target: T2, SRSF1 (UniProt Q07955 2-248); test: as above
T2 construct: also called NP_008855.1
Experimental: as §1, §2

CFL1 = target: T3, CFL1 (UniProt P23528 2-166); test: as above
T3 construct: also called NP_005498.1
Experimental: as §1, §2

TXN = target: T4, TXN (UniProt P10599 2-105); test: as above
T4 construct: also called NP_003320.2
T4 sequence (looked up): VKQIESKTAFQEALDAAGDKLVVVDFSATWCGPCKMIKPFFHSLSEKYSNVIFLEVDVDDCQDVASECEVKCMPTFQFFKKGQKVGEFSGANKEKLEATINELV
Experimental: as §1, §2

HSPB1 = target: T5, HSPB1 (UniProt P04792 1-205); test: as above
T5 construct: also called NP_001531.1
Experimental: as §1, §2

SSRP1 = target: T6, SSRP1 (UniProt Q08945 2-709); test: as above
T6 construct: also called NP_003137.1 (+3)
Experimental: as §1, §2

SRSF3 = target: T7, SRSF3 (UniProt P84103 1-164); test: as above
T7 construct: also called NP_003008.1
T7 sequence (looked up): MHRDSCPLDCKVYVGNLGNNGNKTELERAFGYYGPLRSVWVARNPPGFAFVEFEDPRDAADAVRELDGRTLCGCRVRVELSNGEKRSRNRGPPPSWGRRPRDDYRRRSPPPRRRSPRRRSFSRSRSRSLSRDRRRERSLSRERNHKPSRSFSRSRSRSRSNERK
Experimental: as §1, §2

TNKS1BP1 = target: T8, TNKS1BP1 (UniProt Q9C0C2 1-1729); test: as above
T8 construct: also called NP_203754.2
Experimental: as §1, §2

RPS8 = RPS8 (UniProt P62241 2-208); test: as above
Experimental: as §1, §2

ARG1 = target: T9, ARG1 (UniProt P05089 1-322); test: as above
T9 construct: also called NP_000036.2 (+1)
T9 sequence (looked up): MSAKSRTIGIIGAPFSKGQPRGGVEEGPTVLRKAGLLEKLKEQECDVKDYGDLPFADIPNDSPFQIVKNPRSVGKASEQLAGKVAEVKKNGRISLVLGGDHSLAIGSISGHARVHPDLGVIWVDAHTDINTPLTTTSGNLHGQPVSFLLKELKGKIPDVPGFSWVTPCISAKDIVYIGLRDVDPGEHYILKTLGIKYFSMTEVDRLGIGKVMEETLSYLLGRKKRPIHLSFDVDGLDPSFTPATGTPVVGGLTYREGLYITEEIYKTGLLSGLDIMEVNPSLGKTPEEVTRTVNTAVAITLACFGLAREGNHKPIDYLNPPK
Experimental: as §1, §2

KHDRBS1 = target: T10, KHDRBS1 (human, UniProt Q07666 1-443); test: co-IP with mouse anti-FLAG from lysate of cells overexpressing N-FLAG B3GNT2, then mass spectrometry
T10 construct: Identified by mass spectrometry in the co-IP; also called NP_006550.1
Experimental: as §1, §2

ANXA2 = target: T11, ANXA2 (human, UniProt P07355-2 1-357, limits assumed); test: as above
T11 construct: Identified by mass spectrometry in the co-IP; also called NP_001002858.1 (+1)
Experimental: as §1, §2

VIM = target: T12, VIM (human, UniProt P08670 2-466); test: as above
T12 construct: Identified by mass spectrometry in the co-IP; also called NP_003371.2
Experimental: as §1, §2

T8 sequence (Q9C0C2 whole entry): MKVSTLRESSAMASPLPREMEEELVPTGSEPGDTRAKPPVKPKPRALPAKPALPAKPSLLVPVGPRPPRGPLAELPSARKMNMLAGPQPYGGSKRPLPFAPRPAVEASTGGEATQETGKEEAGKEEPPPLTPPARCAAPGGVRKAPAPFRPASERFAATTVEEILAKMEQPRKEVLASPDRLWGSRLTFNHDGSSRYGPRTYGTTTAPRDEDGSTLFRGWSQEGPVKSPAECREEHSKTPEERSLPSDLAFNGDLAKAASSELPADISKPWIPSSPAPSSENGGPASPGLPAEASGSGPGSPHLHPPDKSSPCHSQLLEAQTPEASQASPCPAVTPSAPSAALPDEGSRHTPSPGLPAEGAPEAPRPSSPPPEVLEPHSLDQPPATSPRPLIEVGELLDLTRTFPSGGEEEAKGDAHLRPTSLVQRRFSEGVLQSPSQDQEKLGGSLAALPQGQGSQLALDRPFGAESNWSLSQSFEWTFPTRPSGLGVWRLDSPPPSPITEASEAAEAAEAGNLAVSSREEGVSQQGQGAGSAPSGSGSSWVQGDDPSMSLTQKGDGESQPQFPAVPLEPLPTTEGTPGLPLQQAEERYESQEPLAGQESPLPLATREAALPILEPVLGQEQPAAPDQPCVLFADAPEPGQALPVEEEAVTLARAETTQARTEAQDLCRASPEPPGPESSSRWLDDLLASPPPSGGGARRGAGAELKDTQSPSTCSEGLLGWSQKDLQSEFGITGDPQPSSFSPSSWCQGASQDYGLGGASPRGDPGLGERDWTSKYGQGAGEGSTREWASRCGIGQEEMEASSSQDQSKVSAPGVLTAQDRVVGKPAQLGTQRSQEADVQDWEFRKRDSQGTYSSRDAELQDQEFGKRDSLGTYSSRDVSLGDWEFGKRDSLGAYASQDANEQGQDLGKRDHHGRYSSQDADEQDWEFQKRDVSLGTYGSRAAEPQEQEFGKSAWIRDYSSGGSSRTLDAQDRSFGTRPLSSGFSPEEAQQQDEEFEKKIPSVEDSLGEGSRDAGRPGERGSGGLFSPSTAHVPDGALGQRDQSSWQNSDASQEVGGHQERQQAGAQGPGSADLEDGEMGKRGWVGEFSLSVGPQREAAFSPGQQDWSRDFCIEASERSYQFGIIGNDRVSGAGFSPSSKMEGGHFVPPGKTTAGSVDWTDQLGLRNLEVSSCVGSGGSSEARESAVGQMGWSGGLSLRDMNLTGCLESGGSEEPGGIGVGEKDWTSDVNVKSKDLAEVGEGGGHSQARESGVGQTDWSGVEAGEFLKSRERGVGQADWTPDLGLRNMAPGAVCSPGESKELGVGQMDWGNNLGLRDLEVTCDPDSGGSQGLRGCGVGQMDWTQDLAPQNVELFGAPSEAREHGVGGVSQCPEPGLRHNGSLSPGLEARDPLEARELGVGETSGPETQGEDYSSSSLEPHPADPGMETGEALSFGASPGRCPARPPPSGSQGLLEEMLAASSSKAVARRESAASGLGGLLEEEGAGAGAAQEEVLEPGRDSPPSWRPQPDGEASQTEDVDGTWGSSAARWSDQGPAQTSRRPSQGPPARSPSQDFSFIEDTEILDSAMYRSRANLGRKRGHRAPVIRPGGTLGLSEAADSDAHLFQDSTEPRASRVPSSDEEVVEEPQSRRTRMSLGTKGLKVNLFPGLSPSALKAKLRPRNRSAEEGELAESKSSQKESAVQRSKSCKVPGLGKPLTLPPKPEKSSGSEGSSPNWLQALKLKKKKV
T6 sequence (Q08945 2-709 limits assumed): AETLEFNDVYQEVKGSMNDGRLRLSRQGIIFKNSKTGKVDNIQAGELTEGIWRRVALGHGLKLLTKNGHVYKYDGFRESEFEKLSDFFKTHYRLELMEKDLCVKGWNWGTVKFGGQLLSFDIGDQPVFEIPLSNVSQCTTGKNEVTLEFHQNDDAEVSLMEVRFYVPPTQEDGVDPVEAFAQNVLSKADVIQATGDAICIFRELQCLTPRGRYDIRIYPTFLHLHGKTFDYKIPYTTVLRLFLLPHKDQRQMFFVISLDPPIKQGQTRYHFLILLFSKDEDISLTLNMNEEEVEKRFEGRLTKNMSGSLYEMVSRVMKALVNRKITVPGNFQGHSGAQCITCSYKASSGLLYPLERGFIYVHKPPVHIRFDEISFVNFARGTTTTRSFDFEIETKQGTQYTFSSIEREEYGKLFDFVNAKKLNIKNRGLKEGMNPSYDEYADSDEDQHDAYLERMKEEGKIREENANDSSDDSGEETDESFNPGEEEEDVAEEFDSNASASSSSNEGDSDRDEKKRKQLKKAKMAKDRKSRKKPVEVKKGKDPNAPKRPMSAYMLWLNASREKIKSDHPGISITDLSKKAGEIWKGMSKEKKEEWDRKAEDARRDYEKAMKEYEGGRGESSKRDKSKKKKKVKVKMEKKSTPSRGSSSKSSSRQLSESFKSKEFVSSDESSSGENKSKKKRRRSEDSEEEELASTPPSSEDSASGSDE
T5 sequence (P04792 whole entry): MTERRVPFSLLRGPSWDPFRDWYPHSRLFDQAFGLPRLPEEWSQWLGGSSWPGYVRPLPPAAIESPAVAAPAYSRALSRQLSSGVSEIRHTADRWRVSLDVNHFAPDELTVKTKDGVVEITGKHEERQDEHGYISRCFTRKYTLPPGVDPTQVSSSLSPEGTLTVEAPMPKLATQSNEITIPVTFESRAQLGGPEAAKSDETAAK
T1 sequence (Q9UHB6 other isoform, or with tags, fused parts or gaps limits assumed): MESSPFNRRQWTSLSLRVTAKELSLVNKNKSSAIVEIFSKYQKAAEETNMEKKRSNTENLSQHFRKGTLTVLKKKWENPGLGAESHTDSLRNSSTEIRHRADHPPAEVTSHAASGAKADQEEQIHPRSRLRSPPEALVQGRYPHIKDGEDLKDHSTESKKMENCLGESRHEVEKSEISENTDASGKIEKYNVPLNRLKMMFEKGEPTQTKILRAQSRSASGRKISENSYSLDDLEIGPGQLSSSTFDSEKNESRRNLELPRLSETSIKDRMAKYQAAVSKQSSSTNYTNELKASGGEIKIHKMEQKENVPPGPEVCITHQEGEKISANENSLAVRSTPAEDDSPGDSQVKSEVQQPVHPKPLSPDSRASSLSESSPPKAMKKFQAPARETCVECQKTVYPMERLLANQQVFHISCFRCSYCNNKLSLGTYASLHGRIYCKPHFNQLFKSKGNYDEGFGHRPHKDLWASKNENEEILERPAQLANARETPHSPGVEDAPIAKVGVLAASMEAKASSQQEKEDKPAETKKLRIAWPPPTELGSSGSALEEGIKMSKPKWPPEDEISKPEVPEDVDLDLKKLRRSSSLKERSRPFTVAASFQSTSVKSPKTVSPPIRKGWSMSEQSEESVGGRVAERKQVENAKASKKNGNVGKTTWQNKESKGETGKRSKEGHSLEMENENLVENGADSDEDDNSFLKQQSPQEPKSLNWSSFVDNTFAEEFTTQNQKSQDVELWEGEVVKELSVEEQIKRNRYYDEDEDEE
T3 sequence (P23528 2-166 limits assumed): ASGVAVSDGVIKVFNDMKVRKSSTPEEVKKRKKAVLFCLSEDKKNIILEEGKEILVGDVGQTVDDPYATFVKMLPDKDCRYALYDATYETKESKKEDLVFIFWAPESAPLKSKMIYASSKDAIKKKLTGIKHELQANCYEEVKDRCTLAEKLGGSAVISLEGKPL
T2 sequence (Q07955 2-248 limits assumed): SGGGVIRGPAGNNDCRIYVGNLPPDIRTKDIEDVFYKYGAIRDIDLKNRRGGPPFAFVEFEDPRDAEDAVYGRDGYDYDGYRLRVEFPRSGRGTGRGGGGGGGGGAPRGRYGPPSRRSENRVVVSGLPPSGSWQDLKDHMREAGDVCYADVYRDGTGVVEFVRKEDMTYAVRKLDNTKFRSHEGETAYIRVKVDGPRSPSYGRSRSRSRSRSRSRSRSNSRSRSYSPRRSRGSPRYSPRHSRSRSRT
T11 sequence (P07355 other isoform, or with tags, fused parts or gaps limits assumed): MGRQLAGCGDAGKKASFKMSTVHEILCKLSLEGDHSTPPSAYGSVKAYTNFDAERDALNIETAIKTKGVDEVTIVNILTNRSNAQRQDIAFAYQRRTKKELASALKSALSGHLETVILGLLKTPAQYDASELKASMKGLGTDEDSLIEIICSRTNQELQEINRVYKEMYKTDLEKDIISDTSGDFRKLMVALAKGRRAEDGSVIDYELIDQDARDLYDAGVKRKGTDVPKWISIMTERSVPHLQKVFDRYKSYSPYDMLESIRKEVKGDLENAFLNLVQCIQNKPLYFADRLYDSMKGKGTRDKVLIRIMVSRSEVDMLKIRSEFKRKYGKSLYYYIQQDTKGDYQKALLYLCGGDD
T10 sequence (Q07666 whole entry): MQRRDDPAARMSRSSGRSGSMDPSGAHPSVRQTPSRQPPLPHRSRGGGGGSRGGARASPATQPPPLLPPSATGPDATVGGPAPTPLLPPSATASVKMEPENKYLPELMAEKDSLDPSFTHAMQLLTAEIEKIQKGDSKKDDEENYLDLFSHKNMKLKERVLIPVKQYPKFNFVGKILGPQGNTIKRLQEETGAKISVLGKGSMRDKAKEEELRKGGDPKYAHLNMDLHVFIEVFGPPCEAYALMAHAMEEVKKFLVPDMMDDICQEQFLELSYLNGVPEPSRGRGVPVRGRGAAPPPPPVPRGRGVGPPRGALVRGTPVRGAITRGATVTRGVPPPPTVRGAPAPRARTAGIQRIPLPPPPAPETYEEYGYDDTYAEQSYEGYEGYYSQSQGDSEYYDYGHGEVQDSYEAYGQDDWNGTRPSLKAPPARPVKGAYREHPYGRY

B1: N-terminal FLAG tagged B3GNT2 (enzyme, human, UniProt Q9NY97 1-397, looked up)
chain: MSVGRRRIKLLGILMMANVFIYFIMEVSKSSSQEKNGKGEVIIPKEKFWKISTPPEAYWNREQEKLNRQYNPILSMLTNQTGEAGRLSNISHLNYCEPDLRVTSVVTGFNNLPDRFKDFLLYLRCRNYSLLIDQPDKCAKKPFLLLAIKSLTPHFARRQAIRESWGQESNAGNQTVVRVFLLGQTPPEDNHPDLSDMLKFESEKHQDILMWNYRDTFFNLSLKEVLFLRWVSTSCPDTEFVFKGDDDVFVNTHHILNYLNSLSKTKAKDLFIGDVIHNAGPHRDKKLKYYIPEVVYSGLYPPYAGGGGFLYSGHLALRLYHITDQVHLYPIDDVYTGMCLQKLGLVPEKHKGFRTFDIEEKNKNNICSYVDLMLVHSRKPQEMIDIWSQLQSAHLKC
notes: Bait of the co-IP; pulled down with mouse anti-FLAG from cell lysate; also called N-FLAG B3GNT2; N-term FLAG; not shown: FLAG tag at the N-terminus
co-IP mass spectrometry count (LIMA1): 4
co-IP mass spectrometry count (RPS19): 5
co-IP mass spectrometry count (RPS18): 15
co-IP mass spectrometry count (SRSF1): 4
co-IP mass spectrometry count (CFL1): 5
co-IP mass spectrometry count (TXN): 3
co-IP mass spectrometry count (HSPB1): 3
co-IP mass spectrometry count (SSRP1): 0
co-IP mass spectrometry count (SRSF3): 6
co-IP mass spectrometry count (TNKS1BP1): 2
co-IP mass spectrometry count (RPS8): 6
co-IP mass spectrometry count (ARG1): 8

B2: N-terminal FLAG tagged B3GNT2 (enzyme, human, UniProt Q9NY97 1-397, looked up)
chain: MSVGRRRIKLLGILMMANVFIYFIMEVSKSSSQEKNGKGEVIIPKEKFWKISTPPEAYWNREQEKLNRQYNPILSMLTNQTGEAGRLSNISHLNYCEPDLRVTSVVTGFNNLPDRFKDFLLYLRCRNYSLLIDQPDKCAKKPFLLLAIKSLTPHFARRQAIRESWGQESNAGNQTVVRVFLLGQTPPEDNHPDLSDMLKFESEKHQDILMWNYRDTFFNLSLKEVLFLRWVSTSCPDTEFVFKGDDDVFVNTHHILNYLNSLSKTKAKDLFIGDVIHNAGPHRDKKLKYYIPEVVYSGLYPPYAGGGGFLYSGHLALRLYHITDQVHLYPIDDVYTGMCLQKLGLVPEKHKGFRTFDIEEKNKNNICSYVDLMLVHSRKPQEMIDIWSQLQSAHLKC
notes: FLAG-tagged ORF overexpressed in A375 cells; bait of the co-IP with mouse anti-FLAG; also called N-FLAG B3GNT2; N-term FLAG; not shown: N-terminal FLAG tag
co-IP mass spectrometry count (N-term FLAG) (KHDRBS1): 9
co-IP mass spectrometry count (N-term FLAG) (ANXA2): 17
co-IP mass spectrometry count (N-term FLAG) (VIM): 402
